# B1: NIgG4B1A2(RS) (Fc fusion)
# chain 1: QVQLQESGGGLVQTGGSLRLSCAVHGRTFSNTGMGWFRQAPGNERQFVAIISPSGTSTYYADSVKGRFTISRDPAKNTVYLQMNSLKMDDTAVYYCAASYGSNWSTLRHQRRNEYDAWGQGTQVAVSRSGPPCPPCPAPEFLGGPSVFLFPPKPKDTLMISRTPEVTCVVVDVSQEDPEVQFNWYVDGVEVHNAKTKPREEQFNSTYRVVSVLTVLHQDWLNGKEYKCKVSNKGLPSSIEKTISKAKGQPREPQVYTLPPCQEEMTKNQVSLWCLVKGFYPSDIAVEWESNGQPENNYKTTPPVLDSDGSFFLYSRLTVDKSRWQEGNVFSCSVMHEALHNHYTQKSLSLSLGK
# chain 2: EVQLLESGGGLVQPGGSLRLSCAASGFRFGNYDMAWVRQAPGKRYEWVSSIDTGGDITHYADSVKGRFTISRDNAKNTLYLQMNSLRPEDTAEYWCATDEEYALGPNEFDYYGQGTLVTVSRSGPPCPPCPAPEFLGGPSVFLFPPKPKDTLMISRTPEVTCVVVDVSQEDPEVQFNWYVDGVEVHNAKTKPREEQFNSTYRVVSVLTVLHQDWLNGKEYKCKVSNKGLPSSIEKTISKAKGQPREPQVCTLPPSQEEMTKNQVSLSCAVKGFYPSDIAVEWESNGQPENNYKTTPPVLDSDGSFFLVSRLTVDKSRWQEGNVFSCSVMHEALHNHYTQKSLSLSLGK
# B2: NIgG4B1A2(G4S)3 (Fc fusion)
# chain 1: QVQLQESGGGLVQTGGSLRLSCAVHGRTFSNTGMGWFRQAPGNERQFVAIISPSGTSTYYADSVKGRFTISRDPAKNTVYLQMNSLKMDDTAVYYCAASYGSNWSTLRHQRRNEYDAWGQGTQVAVSGGGGSGGGGSGGGGSGPPCPPCPAPEFLGGPSVFLFPPKPKDTLMISRTPEVTCVVVDVSQEDPEVQFNWYVDGVEVHNAKTKPREEQFNSTYRVVSVLTVLHQDWLNGKEYKCKVSNKGLPSSIEKTISKAKGQPREPQVYTLPPCQEEMTKNQVSLWCLVKGFYPSDIAVEWESNGQPENNYKTTPPVLDSDGSFFLYSRLTVDKSRWQEGNVFSCSVMHEALHNHYTQKSLSLSLGK
# chain 2: EVQLLESGGGLVQPGGSLRLSCAASGFRFGNYDMAWVRQAPGKRYEWVSSIDTGGDITHYADSVKGRFTISRDNAKNTLYLQMNSLRPEDTAEYWCATDEEYALGPNEFDYYGQGTLVTVSGGGGSGGGGSGGGGSGPPCPPCPAPEFLGGPSVFLFPPKPKDTLMISRTPEVTCVVVDVSQEDPEVQFNWYVDGVEVHNAKTKPREEQFNSTYRVVSVLTVLHQDWLNGKEYKCKVSNKGLPSSIEKTISKAKGQPREPQVCTLPPSQEEMTKNQVSLSCAVKGFYPSDIAVEWESNGQPENNYKTTPPVLDSDGSFFLVSRLTVDKSRWQEGNVFSCSVMHEALHNHYTQKSLSLSLGK
# B3: NIgG4B1A2(G4S)1 (Fc fusion)
# chain 1: QVQLQESGGGLVQTGGSLRLSCAVHGRTFSNTGMGWFRQAPGNERQFVAIISPSGTSTYYADSVKGRFTISRDPAKNTVYLQMNSLKMDDTAVYYCAASYGSNWSTLRHQRRNEYDAWGQGTQVAVSGGGGSGPPCPPCPAPEFLGGPSVFLFPPKPKDTLMISRTPEVTCVVVDVSQEDPEVQFNWYVDGVEVHNAKTKPREEQFNSTYRVVSVLTVLHQDWLNGKEYKCKVSNKGLPSSIEKTISKAKGQPREPQVYTLPPCQEEMTKNQVSLWCLVKGFYPSDIAVEWESNGQPENNYKTTPPVLDSDGSFFLYSRLTVDKSRWQEGNVFSCSVMHEALHNHYTQKSLSLSLGK
# chain 2: EVQLLESGGGLVQPGGSLRLSCAASGFRFGNYDMAWVRQAPGKRYEWVSSIDTGGDITHYADSVKGRFTISRDNAKNTLYLQMNSLRPEDTAEYWCATDEEYALGPNEFDYYGQGTLVTVSGGGGSGPPCPPCPAPEFLGGPSVFLFPPKPKDTLMISRTPEVTCVVVDVSQEDPEVQFNWYVDGVEVHNAKTKPREEQFNSTYRVVSVLTVLHQDWLNGKEYKCKVSNKGLPSSIEKTISKAKGQPREPQVCTLPPSQEEMTKNQVSLSCAVKGFYPSDIAVEWESNGQPENNYKTTPPVLDSDGSFFLVSRLTVDKSRWQEGNVFSCSVMHEALHNHYTQKSLSLSLGK
# B4: NIgG4B3A1(G4S)3 (Fc fusion)
# chain 1: DVQLQESGGGLVQAGGSLRLSCAASGFIFRLAGMSWVRQAPGKGFEWVSGITMDGSTTNYADSVKGRFTISRDNSKNRLYLQMNSLKPEDTAVYYCARGAKGGYNDPRGQGTQVTVSGGGGSGGGGSGGGGSGPPCPPCPAPEFLGGPSVFLFPPKPKDTLMISRTPEVTCVVVDVSQEDPEVQFNWYVDGVEVHNAKTKPREEQFNSTYRVVSVLTVLHQDWLNGKEYKCKVSNKGLPSSIEKTISKAKGQPREPQVYTLPPCQEEMTKNQVSLWCLVKGFYPSDIAVEWESNGQPENNYKTTPPVLDSDGSFFLYSRLTVDKSRWQEGNVFSCSVMHEALHNHYTQKSLSLSLGK
# chain 2: EVQLLESGGGLVQPGGSLRLSCAASGFTFGNYDMAWVRQAPGKRPEWVSSIDTGGDITHYADSVKGRFTISRDNAKNTLYLQMNSLRPEDTAVYWCATDEEYALGPNEFDYYGQGTLVTVSSGGGGSGGGGSGGGGSGPPCPPCPAPEFLGGPSVFLFPPKPKDTLMISRTPEVTCVVVDVSQEDPEVQFNWYVDGVEVHNAKTKPREEQFNSTYRVVSVLTVLHQDWLNGKEYKCKVSNKGLPSSIEKTISKAKGQPREPQVCTLPPSQEEMTKNQVSLSCAVKGFYPSDIAVEWESNGQPENNYKTTPPVLDSDGSFFLVSRLTVDKSRWQEGNVFSCSVMHEALHNHYTQKSLSLSLGK
# B5: CIgG4B1A2(G4S)1 (Fc fusion)
# chain 1: GPPCPPCPAPEFLGGPSVFLFPPKPKDTLMISRTPEVTCVVVDVSQEDPEVQFNWYVDGVEVHNAKTKPREEQFNSTYRVVSVLTVLHQDWLNGKEYKCKVSNKGLPSSIEKTISKAKGQPREPQVYTLPPCQEEMTKNQVSLWCLVKGFYPSDIAVEWESNGQPENNYKTTPPVLDSDGSFFLYSRLTVDKSRWQEGNVFSCSVMHEALHNHYTQKSLSLSLGKGGGGSQVQLQESGGGLVQTGGSLRLSCAVHGRTFSNTGMGWFRQAPGNERQFVAIISPSGTSTYYADSVKGRFTISRDPAKNTVYLQMNSLKMDDTAVYYCAASYGSNWSTLRHQRRNEYDAWGQGTQVAVS
# chain 2: GPPCPPCPAPEFLGGPSVFLFPPKPKDTLMISRTPEVTCVVVDVSQEDPEVQFNWYVDGVEVHNAKTKPREEQFNSTYRVVSVLTVLHQDWLNGKEYKCKVSNKGLPSSIEKTISKAKGQPREPQVCTLPPSQEEMTKNQVSLSCAVKGFYPSDIAVEWESNGQPENNYKTTPPVLDSDGSFFLVSRLTVDKSRWQEGNVFSCSVMHEALHNHYTQKSLSLSLGKGGGGSEVQLLESGGGLVQPGGSLRLSCAASGFRFGNYDMAWVRQAPGKRYEWVSSIDTGGDITHYADSVKGRFTISRDNAKNTLYLQMNSLRPEDTAEYWCATDEEYALGPNEFDYYGQGTLVTVS
# B6: CIgG4B1A2(RS) (Fc fusion)
# chain 1: GPPCPPCPAPEFLGGPSVFLFPPKPKDTLMISRTPEVTCVVVDVSQEDPEVQFNWYVDGVEVHNAKTKPREEQFNSTYRVVSVLTVLHQDWLNGKEYKCKVSNKGLPSSIEKTISKAKGQPREPQVYTLPPCQEEMTKNQVSLWCLVKGFYPSDIAVEWESNGQPENNYKTTPPVLDSDGSFFLYSRLTVDKSRWQEGNVFSCSVMHEALHNHYTQKSLSLSLGKRSQVQLQESGGGLVQTGGSLRLSCAVHGRTFSNTGMGWFRQAPGNERQFVAIISPSGTSTYYADSVKGRFTISRDPAKNTVYLQMNSLKMDDTAVYYCAASYGSNWSTLRHQRRNEYDAWGQGTQVAVS
# chain 2: GPPCPPCPAPEFLGGPSVFLFPPKPKDTLMISRTPEVTCVVVDVSQEDPEVQFNWYVDGVEVHNAKTKPREEQFNSTYRVVSVLTVLHQDWLNGKEYKCKVSNKGLPSSIEKTISKAKGQPREPQVCTLPPSQEEMTKNQVSLSCAVKGFYPSDIAVEWESNGQPENNYKTTPPVLDSDGSFFLVSRLTVDKSRWQEGNVFSCSVMHEALHNHYTQKSLSLSLGKRSEVQLLESGGGLVQPGGSLRLSCAASGFRFGNYDMAWVRQAPGKRYEWVSSIDTGGDITHYADSVKGRFTISRDNAKNTLYLQMNSLRPEDTAEYWCATDEEYALGPNEFDYYGQGTLVTVS
# B7: CIgG4B1A2(G4S)2 (Fc fusion)
# chain 1: GPPCPPCPAPEFLGGPSVFLFPPKPKDTLMISRTPEVTCVVVDVSQEDPEVQFNWYVDGVEVHNAKTKPREEQFNSTYRVVSVLTVLHQDWLNGKEYKCKVSNKGLPSSIEKTISKAKGQPREPQVYTLPPCQEEMTKNQVSLWCLVKGFYPSDIAVEWESNGQPENNYKTTPPVLDSDGSFFLYSRLTVDKSRWQEGNVFSCSVMHEALHNHYTQKSLSLSLGKGGGGSGGGGSQVQLQESGGGLVQTGGSLRLSCAVHGRTFSNTGMGWFRQAPGNERQFVAIISPSGTSTYYADSVKGRFTISRDPAKNTVYLQMNSLKMDDTAVYYCAASYGSNWSTLRHQRRNEYDAWGQGTQVAVS
# chain 2: GPPCPPCPAPEFLGGPSVFLFPPKPKDTLMISRTPEVTCVVVDVSQEDPEVQFNWYVDGVEVHNAKTKPREEQFNSTYRVVSVLTVLHQDWLNGKEYKCKVSNKGLPSSIEKTISKAKGQPREPQVCTLPPSQEEMTKNQVSLSCAVKGFYPSDIAVEWESNGQPENNYKTTPPVLDSDGSFFLVSRLTVDKSRWQEGNVFSCSVMHEALHNHYTQKSLSLSLGKGGGGSGGGGSEVQLLESGGGLVQPGGSLRLSCAASGFRFGNYDMAWVRQAPGKRYEWVSSIDTGGDITHYADSVKGRFTISRDNAKNTLYLQMNSLRPEDTAEYWCATDEEYALGPNEFDYYGQGTLVTVS
# B8: NIgG4B1A2(G4S)2 (Fc fusion)
# chain 1: QVQLQESGGGLVQTGGSLRLSCAVHGRTFSNTGMGWFRQAPGNERQFVAIISPSGTSTYYADSVKGRFTISRDPAKNTVYLQMNSLKMDDTAVYYCAASYGSNWSTLRHQRRNEYDAWGQGTQVAVSGGGGSGGGGSGPPCPPCPAPEFLGGPSVFLFPPKPKDTLMISRTPEVTCVVVDVSQEDPEVQFNWYVDGVEVHNAKTKPREEQFNSTYRVVSVLTVLHQDWLNGKEYKCKVSNKGLPSSIEKTISKAKGQPREPQVYTLPPCQEEMTKNQVSLWCLVKGFYPSDIAVEWESNGQPENNYKTTPPVLDSDGSFFLYSRLTVDKSRWQEGNVFSCSVMHEALHNHYTQKSLSLSLGK
# chain 2: EVQLLESGGGLVQPGGSLRLSCAASGFRFGNYDMAWVRQAPGKRYEWVSSIDTGGDITHYADSVKGRFTISRDNAKNTLYLQMNSLRPEDTAEYWCATDEEYALGPNEFDYYGQGTLVTVSGGGGSGGGGSGPPCPPCPAPEFLGGPSVFLFPPKPKDTLMISRTPEVTCVVVDVSQEDPEVQFNWYVDGVEVHNAKTKPREEQFNSTYRVVSVLTVLHQDWLNGKEYKCKVSNKGLPSSIEKTISKAKGQPREPQVCTLPPSQEEMTKNQVSLSCAVKGFYPSDIAVEWESNGQPENNYKTTPPVLDSDGSFFLVSRLTVDKSRWQEGNVFSCSVMHEALHNHYTQKSLSLSLGK
# Molecular target: mixture of three Der p 2 specific recombinant human IgE clones H10, H12, P4E (human) (UniProt P01854)
# Assay: RBL-SX38 IgE displacement, FACS
# Chain of mixture of three Der p 2 specific recombinant human IgE clones H10, H12, P4E (human) (P01854 other isoform, or with tags, fused parts or gaps): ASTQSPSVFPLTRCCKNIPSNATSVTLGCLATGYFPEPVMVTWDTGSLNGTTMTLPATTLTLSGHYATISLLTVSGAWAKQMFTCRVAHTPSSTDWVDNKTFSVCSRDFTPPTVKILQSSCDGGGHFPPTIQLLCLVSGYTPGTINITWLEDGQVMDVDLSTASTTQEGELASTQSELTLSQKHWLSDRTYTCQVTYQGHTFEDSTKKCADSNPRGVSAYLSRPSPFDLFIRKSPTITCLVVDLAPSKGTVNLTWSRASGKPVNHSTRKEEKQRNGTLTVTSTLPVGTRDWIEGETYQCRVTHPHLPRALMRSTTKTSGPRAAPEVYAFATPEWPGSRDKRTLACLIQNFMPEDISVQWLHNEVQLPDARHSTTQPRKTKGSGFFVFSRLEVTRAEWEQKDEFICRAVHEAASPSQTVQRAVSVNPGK
EC50,Max effect/effect 1 µM,Binder
0.6 nM,99%,B1
0.5 nM,100%,B2
0.4 nM,100%,B3
,93%,B4
8.1 nM,100%,B5
11.9 nM,99%,B6
6.1 nM,100%,B7
0.4 nM,100%,B8

# — patent publication US20250171562A1
